# From US20230091175A1 (SYSMEX, published 2023)
# Changes are numbered by the printed parent chain.
# T1: animal free recombinant human IL-4 (AF-200-04: Peprotech, Inc.) (human, UniProt P05112 25-153)
# T1 construct: Bought reagent
# T1 sequence (looked up): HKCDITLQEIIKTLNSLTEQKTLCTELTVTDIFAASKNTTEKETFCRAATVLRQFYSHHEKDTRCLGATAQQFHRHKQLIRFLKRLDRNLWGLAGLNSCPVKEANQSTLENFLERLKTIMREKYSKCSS
# B1: human anti-IL-4 antibody (PDB: 5FHX), original (unmodified) (antibody, human IgG1, kappa, V domains shown)
# VH: AVQLQQSGPELVKPGASVKISCKASGYSFTSYWIHWIKQRPGQGLEWIGMIDPSDGETRLNQRFQGRATLTVDESTSTAYMQLRSPTSEDSAVYYCTRLKEYGNYDSFYFDVWGAGTLVTVSS
# VL: DIQMTQSPASLSVSVGDTITLTCHASQNIDVWLSWFQQKPGNIPKLLIYKASNLHTGVPSRFSGSGSGTGFTLTISSLQPEDIATYYCQQAHSYPFTFGGGTKLEIKR
# notes: IgG with full heavy and light chains; also called original anti-IL-4 antibody
# B2: R3 variant of anti-IL-4 antibody (antibody, human IgG1, kappa, V domains shown)
# VH: B1 VH
# VL: B1 VL with S63R, S65R, S67R
# notes: IgG; light chain positions 63, 65, 67 (Chothia) changed to Arg
# B3: R4 variant of anti-IL-4 antibody (antibody, human IgG1, kappa, V domains shown)
# VH: B1 VH
# VL: B1 VL with S63R, S65R, S67R, G70R
# notes: IgG; light chain positions 63, 65, 67, 70 (Chothia) changed to Arg
# Target: T1, animal free recombinant human IL-4 …
# Experiment: ELISA, IL-4 coated on plate, HRP anti-human IgG detection
# Protocol: (§1) Affinity of the original anti-IL-4 antibody and variants was measured by ELISA method. As an antigen, an animal free recombinant human IL-4 (AF-200-04: Peprotech, Inc.) was used. The IL-4 was diluted with 1% BSA/TBS to prepare an antigen solution (5 μg/mL). Each of the original anti-IL-4 antibody, R3 variant and R4 variant was diluted with 1% BSA/TBS to prepare an antibody solution (1000 ng/mL, 250 ng/mL, 62.5 ng/mL, 15.63 ng/mL, 3.91 ng/mL, 0.98 ng/mL, and 0.244 ng/mL). As a detection antibody, an HRP-labeled anti-human IgG antibody (Bethyl Laboratories) was used. The detection antibody was diluted with 1% BSA/TBS to prepare a detection antibody solution (100 ng/mL).
# (§2) The antigen solution was dispensed at 50 μL per well into a 96 well plate for ELISA (Thermo Fisher Scientific), and the plate was incubated at 4° C. overnight. The plate was washed 3 times with 200 μL of a washing solution per well (0.05% Tween 20-containing TBS). A blocking solution (1% BSA-containing TBS) was dispensed at 250 μL per well, and the plate was incubated at 4° C. overnight. The blocking solution was removed, the […] solution was dispensed at 50 μL of antibody solution per well into the plate, and the plate was incubated at room temperature for 15 minutes. After washing the plate 3 times with a washing solution, the detection antibody solution was dispensed at 50 μL per well, and the plate was incubated at room temperature for 1 hour. After washing the plate 3 times with a washing solution, a substrate solution (Seracare) was dispensed at 100 μL per well into the plate, and the absorbance at 450 nm was measured with a plate reader SpectraMax 190 Microplate Reader (Molecular Devices, LLC.).
row,EC50 [µg/mL],Binder
1,0.304,B1
2,0.18,B2
3,0.176,B3

# Target: T1, animal free recombinant human IL-4 …
# Experiment: ELISA; affinity ratio with the original antibody as 1.0
# Protocol: as §1, §2
row,EC50 ratio,Binder
1,1,B1
2,1.7,B2
3,1.7,B3
